Results from EP0853661B1 (CAMBRIDGE ANTIBODY TECHNOLOGY LIMITED, dated 2000).

T1: human TGFβ2 (transforming growth factor beta 2) (human, UniProt P61812 303-414)
T1 sequence (looked up): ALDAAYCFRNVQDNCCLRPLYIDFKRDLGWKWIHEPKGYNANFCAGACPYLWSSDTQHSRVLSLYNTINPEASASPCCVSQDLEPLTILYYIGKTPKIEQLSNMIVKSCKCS

T2: TGFβ3 (transforming growth factor beta 3) (UniProt P10600 301-412)
T2 construct: mature; also called TGFbeta3
T2 sequence (looked up): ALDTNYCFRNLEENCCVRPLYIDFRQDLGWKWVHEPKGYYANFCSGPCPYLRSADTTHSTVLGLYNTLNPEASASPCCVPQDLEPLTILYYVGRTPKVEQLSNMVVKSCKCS


How the values were obtained:
[1] = target: T1, human TGFβ2 (transforming growth factor …); assay: cell-based or functional assay
[2] = target: T2, TGFβ3 (transforming growth factor beta …); assay: A549 cell radioreceptor assay
[3] = target: T2, TGFβ3 (transforming growth factor beta …); assay: cell-based or functional assay
[4] = target: T2, TGFβ3 (transforming growth factor beta …); assay: A549 cell radioreceptor assay, inhibition of 125I-TGFβ3 binding to receptors
[5] = target: T2, TGFβ3 (transforming growth factor beta …); assay: BIAcore 2000, antigen immobilised, antibody as analyte; koff divided by kon
[6] = target: T2, TGFβ3 (transforming growth factor beta …); assay: BIAcore 2000, ratio of dissociation constants
[7] = target: T1, human TGFβ2 (transforming growth factor …); assay: cell-based or functional assay; remark: listed apart in the source
[8] = target: T2, TGFβ3 (transforming growth factor beta …); assay: BIAcore 2000, antigen immobilised, antibody as analyte
[9] = target: T2, TGFβ3 (transforming growth factor beta …); assay: cell-based or functional assay; remark: listed apart in the source
[10] = target: T1, human TGFβ2 (transforming growth factor …); assay: BIACore, IgG4 over TGFβ2-coated chip
[11] = target: T3, human TGFβ1 (transforming growth factor beta 1) (human, UniProt P01137 279-390); assay: BIACore, scFv (35µl) injected over amine-coupled antigen on CM5 chip; chip as printed
T3 construct: mature; Active dimer; also called TGFbeta1
T3 sequence (P01137 279-390 limits assumed): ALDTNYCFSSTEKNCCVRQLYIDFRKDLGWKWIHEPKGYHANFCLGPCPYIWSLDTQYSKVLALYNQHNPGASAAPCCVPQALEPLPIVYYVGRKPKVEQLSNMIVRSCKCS

[12] = target: T1, human TGFβ2 (transforming growth factor …); assay: as above
[13] = target: T3, human TGFβ1 (transforming growth factor …); assay: specificity ELISA, TGFβ isoforms coated at 0.2µg/ml

Binder | I.C.50 in TF1 assay (neutralisation of the TGFβ2 inhibition of IL-5 induced TF1 cell proliferation) [7] | total increase in resonance units (RU) [11] | total increase in resonance units (RU) [12] | other results
6B1 IgG4 (antibody, V domains shown) VH: EVQLVESGGGVVQPGRSLRLSCAASGFTFSSYGMHWVRQAPGKGLEWVAVIWYDGSNKYYADSVKGRFTISRDNSKNTLYLQMDSLRAEDTAVYYCGRTLESSLWGQGTLVTVSS VL: SSELTQDPAVSVALGQTVRITCQGDSLRSYYASWYQQKPGQAPVLVIYGKNNRPSGIPDRFSGSSSGNTASLTITGAQAEDEADYYCNSRDSSSTHRGVFGGGTKLTVLG | 11 nM |  |  | IC50 in the TF1 neutralisation assay (6B1 IgG4 from cell line 5D8-2A6) [1]: 1.8 nM; cross-reactivity with TGFβ3 relative to TGFβ2 [2]: < 2%; TF1 cell proliferation assay IC50 (nM IgG) [3]: 11 nM; IC50 [4]: 4 nM; Kd [5]: 10 nM; cross-reactivity with TGFβ3 (ratio of dissociation constants for TGFβ3 and TGFβ2) [6]: 9%; koff [8]: 0.00045 s⁻¹; kon [8]: 45000 M⁻¹ s⁻¹
6H1 IgG4 (antibody, V domains shown) VH: EVQLVESGGGVVQPGRSLRLSCAASGFTFSSYGMHWVRQAPGKGLEWVAVIWYDGSNKYYADSVKGRFTISRDNSKNTLYLQMDSLRAEDTAVYYCGRTLESSLWGQGTLVTVSS VL: DVVMTQSPSSLSASVGDRVTITCRASQGISNYLAWYQQKPGKAPKLLIYKASTLESGVPSRFSGSGSGTEFTLTISSLQPEDFATYYCQQSYSTPRTFGQGTKVDIKR | 100 nM |  |  | IC50 of neutralisation of TGFβ3 in the TF1 cell proliferation assay [9]: ~20 nM; IC50 in the TF1 neutralisation assay (6H1 IgG4 from a CHO cell line) [1]: 15 nM; IC50 of neutralisation of TGFβ2 in the TF1 cell proliferation assay [1]: 12 nM
6A5 IgG4 (antibody, V domains shown) VH: EVQLVESGGGVVQPGRSLRLSCAASGFTFSSYGMHWVRQAPGKGLEWVAVIWYDGSNKYYADSVKGRFTISRDNSKNTLYLQMDSLRAEDTAVYYCGRTLESSLWGQGTLVTVSS VL: SSELTQDPAVSVALGQTVRITCQGDSLRSYYASWYQQKPGQAPVLVIYGKNNRPSGIPDRFAGSNSGNTASLTITGAQAEDEADYYCSSRDSSGNHVVFGGGTKLTVLG | 150 nM |  |  | 
27C1/10A6 IgG4 (antibody, V domains shown) VH: QVQLVESGGGVVQPGRSLRLSCAASGLTFSSYDMHWVRQPPAKGLEWVAVISYDGSSKYYADSVKGRFTISRDNSKNTLYLQMNSLRAEDTAVYYCARTGEYSGYDTSGVELWGQGTTVTVSS VL: HVILTQDPAVSVALGQTVRITCQGDSLKSYYASWYQQKPGQAPVLVIYGENSRPSGIPDRFSGSSSGNTASLTITGAQAEDEADYYCNSRDSSGTHLEVFGGGTKLTVLG |  |  |  | fold higher dissociation constant for TGFβ2 compared to TGFβ1 [10]: ≥ 10 fold
14F12 scFv (scFv) EIQLVESGGGVVQPGRSLRLSCAASGFTFSSYAMHWVRQAPAKGLEWVAVISYDGSNKYYADSVKGRFTISRDNSKNTLYLQMNSLRAEDTAVYYCARAGLETTWGQGTLVTVSSSGGGGGSGGGGSGGGGSSSELTQDPAVSVALGQTVRITCQGDSLRNYYANWYQQKPGQAPVLVIYGKNNRPSGIPDRFSGSSSGNTASLTITGARAEDEGVYYCNSRDSSGAVFGGGTKLTVLG | 90 nM | 616 RU | 115 RU | 
10A6 scFv (scFv) QVQLVESGGGVVQPGRSLRLSCAASGFTFSSYGMHWVRQAPGKGLEWVAVISYDGSNKYYADSVKGRFTISRDNSKNTLYLQMNSLRAEDTAVYYCAKTGEYSGYDSSGVDVWGKGTTVTVSSGGGGSGGGGSGGGGSHVILTQDPAVSVALGQTVRITCQGDSLKSYYASWYQQKPGQAPVLVIYGENSRPSGIPDRFSGSSSGNTASLTITGAQAEDEADYYCNSRDSSGTHLEVFGGGTKLTVLG |  |  |  | fold ELISA signal on TGFβ1 against the signal on TGFβ2 and TGFβ3 [13]: ≥ 5 fold
6H1 scFv (scFv) EVQLVESGGGVVQPGRSLRLSCAASGFTFSSYGMHWVRQAPGKGLEWVAVIWYDGSNKYYADSVKGRFTISRDNSKNTLYLQMDSLRAEDTAVYYCGRTLESSLWGQGTLVTVSSGGGGSGGGGSGGGGSDVVMTQSPSSLSASVGDRVTITCRASQGISNYLAWYQQKPGKAPKLLIYKASTLESGVPSRFSGSGSGTEFTLTISSLQPEDFATYYCQQSYSTPRTFGQGTKVDIKR | 1.5 nM | 686 RU | 77 RU | 
6A5 scFv (scFv) EVQLVESGGGVVQPGRSLRLSCAASGFTFSSYGMHWVRQAPGKGLEWVAVIWYDGSNKYYADSVKGRFTISRDNSKNTLYLQMDSLRAEDTAVYYCGRTLESSLWGQGTLVTVSSGGGGSGGGGSGGGGSSSELTQDPAVSVALGQTVRITCQGDSLRSYYASWYQQKPGQAPVLVIYGKNNRPSGIPDRFAGSNSGNTASLTITGAQAEDEADYYCSSRDSSGNHVVFGGGTKLTVLG | 8 nM | 480 RU | 71 RU | 
6B1 scFv (scFv) EVQLVESGGGVVQPGRSLRLSCAASGFTFSSYGMHWVRQAPGKGLEWVAVIWYDGSNKYYADSVKGRFTISRDNSKNTLYLQMDSLRAEDTAVYYCGRTLESSLWGQGTLVTVSSGGGGSGGGGSGGGGSSSELTQDPAVSVALGQTVRITCQGDSLRSYYASWYQQKPGQAPVLVIYGKNNRPSGIPDRFSGSSSGNTASLTITGAQAEDEADYYCNSRDSSSTHRGVFGGGTKLTVLG | 15 nM |  |  | 
